Experimental data as given in the supplement of paper PMC10567573.

B1: CDKL4 (parent)
chain: AVKKFVESEDDPVVKKIALREIRM
B2: SPOPL (parent)
chain: YTGRAPNLDKMADNLLAAADKYAL

Variants of: B1
Assay: protein stability index of a GFP-peptide fusion (GPS, HEK-293T) (PSI 1-6); higher = more stable
Settings: c terminus: a fixed tail appended
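Also: lentivirally expressed fusions sorted by FACS into six bins by GFP to DsRed ratio, PSI derived from sequencing read proportions per bin multiplied by bin number.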

Variant | protein stability index
AVKKFVESEDDPVVKKIALREIVM | 1.44
AVKKFVESEDDPVVKKIALREINM | 4.2
AVKKFVESEDDPVVKKIALREISM | 2.75
AVKKFVESEDDPVVKKIALREIPM | 3.67
AVKKFVESEDDPVVKKIALREIHM | 3.14
AVKKFVESEDDPVVKKIALREIIM | 1.71
AVKKFVESEDDPVVKKIALREILM | 1.45
AVKKFVESEDDPVVKKIALREIYM | 2.27
AVKKFVESEDDPVVKKIALREIEM | 4.24
AVKKFVESEDDPVVKKIALREICM | 2.78
AVKKFVESEDDPVVKKIALREIFM | 1.93
AVKKFVESEDDPVVKKIALREIGM | 3.16
AVKKFVESEDDPVVKKIALREIQM | 3.29
AVKKFVESEDDPVVKKIALREIDM | 3.95
AVKKFVESEDDPVVKKIALREIAM | 2.03
AVKKFVESEDDPVVKKIALREIWM | 2.03
AVKKFVESEDDPVVKKIALREITM | 2.74
AVKKFVESEDDPVVKKIALREIKM | 3.29
AVKKFVESEDDPVVKKIALRIIRM | 2.99
AVKKFVESEDDPVVKKIALRNIRM | 2.96
AVKKFVESEDDPVVKKIALRPIRM | 2.57

Variant | protein stability index
AVKKFVESEDDPVVKKIALRFIRM | 1.7
AVKKFVESEDDPVVKKIALRQIRM | 2.45
AVKKFVESEDDPVVKKIALRVIRM | 2.46
AVKKFVESEDDPVVKKIALRAIRM | 2.42
AVKKFVESEDDPVVKKIALRLIRM | 2.69
AVKKFVESEDDPVVKKIALRHIRM | 2.95
AVKKFVESEDDPVVKKIALRKIRM | 2.48
AVKKFVESEDDPVVKKIALRTIRM | 2.4
AVKKFVESEDDPVVKKIALRWIRM | 3.91
AVKKFVESEDDPVVKKIALRSIRM | 2.35
AVKKFVESEDDPVVKKIALRCIRM | 2.37
AVKKFVESEDDPVVKKIALRGIRM | 3.24
AVKKFVESEDDPVVKKIALRRIRM | 3.02
AVKKFVESEDDPVVKKIALRYIRM | 2.69
AVKKFVESEDDPVVKKIALRMIRM | 1.46
AVKKFVESEDDPVVKKIALREYRM | 3.35
AVKKFVESEDDPVVKKIALREGRM | 3.66
AVKKFVESEDDPVVKKIALRERRM | 4.03
AVKKFVESEDDPVVKKIALREARM | 3.82
AVKKFVESEDDPVVKKIALREWRM | 2.92
AVKKFVESEDDPVVKKIALREDRM | 4

Variant | protein stability index
AVKKFVESEDDPVVKKIALREVRM | 2.57
AVKKFVESEDDPVVKKIALREPRM | 4.54
AVKKFVESEDDPVVKKIALREFRM | 2.18
AVKKFVESEDDPVVKKIALREERM | 4.04
AVKKFVESEDDPVVKKIALRESRM | 3.97
AVKKFVESEDDPVVKKIALRELRM | 3.11
AVKKFVESEDDPVVKKIALREMRM | 3.29
AVKKFVESEDDPVVKKIALREKRM | 4.29
AVKKFVESEDDPVVKKIALREQRM | 3.62
AVKKFVESEDDPVVKKIALRETRM | 4.01
AVKKFVESEDDPVVKKIALRECRM | 3.32
AVKKFVESEDDPVVKKIALRENRM | 4.22
AVKKFVESEDDPVVKKIALREHRM | 4.06
AVKKFVESEDDPVVKKIALREIRP | 3.43
AVKKFVESEDDPVVKKIALREIRR | 3.23
AVKKFVESEDDPVVKKIALREIRL | 2.74
AVKKFVESEDDPVVKKIALREIRF | 2.6
AVKKFVESEDDPVVKKIALREIRE | 3.41
AVKKFVESEDDPVVKKIALREIRV | 3.36
AVKKFVESEDDPVVKKIALREIRS | 3.71
AVKKFVESEDDPVVKKIALREIRH | 3.59

Variant | protein stability index
AVKKFVESEDDPVVKKIALREIRK | 3.11
AVKKFVESEDDPVVKKIALREIRC | 2.76
AVKKFVESEDDPVVKKIALREIRD | 3.73
AVKKFVESEDDPVVKKIALREIRT | 3.15
AVKKFVESEDDPVVKKIALREIRY | 3.86
AVKKFVESEDDPVVKKIALREIRW | 2.48
AVKKFVESEDDPVVKKIALREIRI | 2.97
AVKKFVESEDDPVVKKIALREIRN | 2.95
AVKKFVESEDDPVVKKIALREIRQ | 3.92
AVKKFVESEDDPVVKKIALREIRG | 3.07
AVKKFVESEDDPVVKKIALYEIRM | 2.25
AVKKFVESEDDPVVKKIALQEIRM | 3.49
AVKKFVESEDDPVVKKIALWEIRM | 2.43
AVKKFVESEDDPVVKKIALNEIRM | 3.74
AVKKFVESEDDPVVKKIALVEIRM | 1.46
AVKKFVESEDDPVVKKIALPEIRM | 2.87
AVKKFVESEDDPVVKKIALTEIRM | 2.88
AVKKFVESEDDPVVKKIALSEIRM | 3.19

Variants of: B2
Assay: as above
Settings: c terminus: a fixed tail appended

Variant | protein stability index
YTGRAPNLDKMADNLLAAAQKYAL | 1.53
YTGRAPNLDKMADNLLAAAEKYAL | 1.61
YTGRAPNLDKMADNLLAAAMKYAL | 2.22
YTGRAPNLDKMADNLLAAAGKYAL | 2.29
YTGRAPNLDKMKDNLLAAADKYAL | 1.97
YTGRAPNLDKMQDNLLAAADKYAL | 2.07
YTGRAPNLDKMCDNLLAAADKYAL | 2.56
YTGRAPNLDKMFDNLLAAADKYAL | 1.58
YTGRAPNLDKMDDNLLAAADKYAL | 2.92
YTGRAPNLDKMHDNLLAAADKYAL | 2.33
YTLRAPNLDKMADNLLAAADKYAL | 2.11
YTTRAPNLDKMADNLLAAADKYAL | 1.94
YTIRAPNLDKMADNLLAAADKYAL | 1.86
